Measured values reported in patent publication US20250145708A1 (GOOD T CELLS, published 2025).

Legend:
Test in all cases: Lrig-1 peptide microarray (15-mers, 14 aa overlap), H6 at 1, 10 and 100 µg/ml
[1] = target: T1, Lrig-1 epitope peptide SEQ ID NO: 18
T1 construct: it was not itself a separately tested peptide
T1 peptide: WTRSLNLSYNKL
Experimental: (§1) Pre-staining of a Lrig-1 peptide microarray copy using secondary and control antibodies in incubation buffer was performed to identify whether they can interact with antigen-derived peptides that can interfere with the main assays. Subsequent incubation of other Lrig-1 peptide microarray copies with the H6 monoclonal antibody of Production Example 8 (1 μg/ml, 10 μg/ml, and 100 μg/ml) in incubation buffer was followed by staining with secondary and control antibodies. Read-out was performed at a scanning intensity of 7/7 (red/green) using the LI-COR Odyssey Imaging System. Quantification of spot intensities and peptide annotation were based on the 16-bit gray scale tiff files. Microarray image analysis was done with PepSlide® Analyzer.

[2] = target: T2, Lrig-1 epitope peptide SEQ ID NO: 19
T2 peptide: TEVRNTCFPHGPPI
Experimental: as §1

[3] = target: T3, Lrig-1 epitope peptide SEQ ID NO: 20
T3 peptide: RLTQLDLNRNRIR
Experimental: as §1

[4] = target: T4, Lrig-1 epitope peptide SEQ ID NO: 21
T4 peptide: DLNRNRIRLIEGLTF
Experimental: as §1

[5] = target: T5, Lrig-1 epitope peptide SEQ ID NO: 22
T5 peptide: NSIARIHRKGW
Experimental: as §1

[6] = target: T6, Lrig-1 epitope peptide SEQ ID NO: 23
T6 peptide: WLPPWLIGRMLQAF
Experimental: as §1

[7] = target: T7, Lrig-1 epitope peptide SEQ ID NO: 24
T7 peptide: RQVTFGHEGRY
Experimental: as §1

[8] = target: T8, Lrig-1 epitope peptide SEQ ID NO: 25
T8 peptide: FGHEGRYQCVITNHF
Experimental: as §1

[9] = target: T9, Lrig-1 epitope peptide SEQ ID NO: 26
T9 peptide: RLTVNVLPSFTKTPH
Experimental: as §1

[10] = target: T10, Lrig-1 epitope peptide SEQ ID NO: 27
T10 peptide: RRMHVMPDDDVFF
Experimental: as §1

[11] = target: T11, Lrig-1 epitope peptide SEQ ID NO: 28
T11 peptide: FFITDVKIDDAGVYS
Experimental: as §1

- binding result [1]: binds
- binding result [2]: binds
- binding result [3]: binds
- binding result [4]: binds
- binding result [5]: binds
- binding result [6]: binds
- binding result [7]: binds
- binding result [8]: binds
- binding result [9]: binds
- binding result [10]: binds
- binding result [11]: binds
B1: H6 clone monoclonal antibody (Production Example 8) (antibody, mouse IgG2a, V domains shown)
VH: EVQLLESGGGLVQPGGSLRLSCAASGFTFSNYAMSWVRQAPGKGLEWVSVISHGGGSTYYADSVKGRFTISRDNSKNTLYLQMNSLRAEDTAVYYCARVISNCHLGVCYYSNGMDVWGQGTLVTVSS
VL: QSVLTQPPSASGTPGQRVTISCSGSSSNIGNNDVYWYQQLPGTAPKLLIYSDSQRPSGVPDRFSGSKSGTSASLAISGLRSEDEADYYCGTWDYSLSGYVFGGGTKLTVLR
notes: also called H6 monoclonal antibody
